# Assay results taken from patent US20070082380A1 (ARMAGEN TECHNOLOGIES, published 2007).
# B1: chimeric HIRMAb (chimeric monoclonal antibody to the human insulin receptor) (antibody, human IgG1, kappa)
# heavy: not shown
# light: DIQMTQSPSSLSASLGERVSLTCRASQDIGGNLYWLQQGPDGTIKRLIYATSSLDSGVPKRFSGSRSGSDYSLTISSLESEDFVDYYCLQYSSSPWTFGGATKMEIKRTVAAPSVFIFPPSDEQLKSGTASVVCLLNNFYPREAKVQWKVDNALQSGNSQESVTEQDSKDSTYSLSSTLTLSKADYEKHKVYACEVTHQGLSSPVTKSFNRGEC
# notes: chimeric human IgG1/kappa
# Molecular target: T1, human insulin receptor extracellular domain (HIR ECD) (human, UniProt P06213 28-956, limits assumed)
# T1 construct: extracellular domain
# Assay: competitive ligand binding assay, displacement of [125I] murine HIRMAb from plated HIR ECD, Scatchard analysis
# Protocol: CHO cells permanently transfected with the HIR ECD were grown in serum free media (SFM), and the HIR ECD was purified with a wheat germ agglutinin affinity column.
binder,measurement,value
B1,Ki,0.63 nM
